For experiment [1], the target named is AAV2 capsid (adeno-associated virus serotype 2) (UniProt P03135). Description: bind-and-elute chromatography, pure AAV2; bound at pH 7.0, eluted with PBS pH 2.0; ELISA. (In general: In an ELISA, binding on a coated surface is turned into a signal by an enzyme label.)
Experiment [2] concerns the target AAV9 capsid (adeno-associated virus serotype 9). Description: bind-and-elute chromatography, pure AAV9; bound at pH 7.0, eluted with PBS pH 2.0; ELISA.
For experiment [3] the target is unchanged. Briefly: bind-and-elute chromatography, pure AAV9; bound at pH 7.0, eluted with 0.2 M MgCl2 in citrate pH 2.2; ELISA.
For experiment [4], the target named is AAV2 capsid (adeno-associated virus serotype 2) (UniProt P03135). Briefly: bind-and-elute chromatography, pure AAV2; bound at pH 7.0, eluted with 0.2 M MgCl2 in citrate pH 2.2; ELISA.

The source of these data is patent US20260226503A1.

Chain of AAV2 capsid (adeno-associated virus serotype 2) (P03135 whole entry, chain 1 of 3): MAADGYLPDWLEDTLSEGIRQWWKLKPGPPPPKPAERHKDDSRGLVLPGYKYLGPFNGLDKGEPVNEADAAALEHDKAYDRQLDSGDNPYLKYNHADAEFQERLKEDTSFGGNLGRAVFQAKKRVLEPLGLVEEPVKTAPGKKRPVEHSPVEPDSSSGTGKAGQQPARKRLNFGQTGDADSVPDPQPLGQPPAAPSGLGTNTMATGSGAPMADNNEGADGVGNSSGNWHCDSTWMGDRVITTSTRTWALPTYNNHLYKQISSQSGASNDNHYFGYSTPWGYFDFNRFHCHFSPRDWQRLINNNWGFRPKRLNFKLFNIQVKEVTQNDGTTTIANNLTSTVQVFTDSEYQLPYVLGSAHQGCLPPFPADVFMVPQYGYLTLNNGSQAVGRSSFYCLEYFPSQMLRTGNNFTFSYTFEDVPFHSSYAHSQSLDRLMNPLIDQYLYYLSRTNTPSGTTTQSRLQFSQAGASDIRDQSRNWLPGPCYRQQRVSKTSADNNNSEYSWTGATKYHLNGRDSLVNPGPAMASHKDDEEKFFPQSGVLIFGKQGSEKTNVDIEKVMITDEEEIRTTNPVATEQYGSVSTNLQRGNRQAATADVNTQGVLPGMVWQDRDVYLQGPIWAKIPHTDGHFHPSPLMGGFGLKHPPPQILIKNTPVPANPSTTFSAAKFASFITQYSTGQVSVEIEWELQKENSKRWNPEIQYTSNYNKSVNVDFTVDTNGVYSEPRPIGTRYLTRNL
Chain of AAV2 capsid (adeno-associated virus serotype 2) (P03135 139-735, tags left off, chain 2 of 3): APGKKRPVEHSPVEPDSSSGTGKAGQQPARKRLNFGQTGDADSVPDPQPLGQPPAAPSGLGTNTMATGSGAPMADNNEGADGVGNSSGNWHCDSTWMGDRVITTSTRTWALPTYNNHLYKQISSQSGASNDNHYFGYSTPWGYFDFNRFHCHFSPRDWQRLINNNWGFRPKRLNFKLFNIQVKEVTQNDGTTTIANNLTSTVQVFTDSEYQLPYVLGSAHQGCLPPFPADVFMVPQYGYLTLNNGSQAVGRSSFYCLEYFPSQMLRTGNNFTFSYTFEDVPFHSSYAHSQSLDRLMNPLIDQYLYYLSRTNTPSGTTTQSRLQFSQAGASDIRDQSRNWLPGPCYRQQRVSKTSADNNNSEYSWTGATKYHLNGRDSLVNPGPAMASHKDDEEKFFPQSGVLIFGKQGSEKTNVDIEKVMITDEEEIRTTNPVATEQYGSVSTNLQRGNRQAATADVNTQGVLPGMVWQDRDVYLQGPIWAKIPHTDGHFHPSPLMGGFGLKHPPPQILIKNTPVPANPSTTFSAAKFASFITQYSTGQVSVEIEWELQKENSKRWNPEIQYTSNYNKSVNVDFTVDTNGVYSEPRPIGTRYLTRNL
Chain of AAV2 capsid (adeno-associated virus serotype 2) (P03135 203-735, chain 3 of 3): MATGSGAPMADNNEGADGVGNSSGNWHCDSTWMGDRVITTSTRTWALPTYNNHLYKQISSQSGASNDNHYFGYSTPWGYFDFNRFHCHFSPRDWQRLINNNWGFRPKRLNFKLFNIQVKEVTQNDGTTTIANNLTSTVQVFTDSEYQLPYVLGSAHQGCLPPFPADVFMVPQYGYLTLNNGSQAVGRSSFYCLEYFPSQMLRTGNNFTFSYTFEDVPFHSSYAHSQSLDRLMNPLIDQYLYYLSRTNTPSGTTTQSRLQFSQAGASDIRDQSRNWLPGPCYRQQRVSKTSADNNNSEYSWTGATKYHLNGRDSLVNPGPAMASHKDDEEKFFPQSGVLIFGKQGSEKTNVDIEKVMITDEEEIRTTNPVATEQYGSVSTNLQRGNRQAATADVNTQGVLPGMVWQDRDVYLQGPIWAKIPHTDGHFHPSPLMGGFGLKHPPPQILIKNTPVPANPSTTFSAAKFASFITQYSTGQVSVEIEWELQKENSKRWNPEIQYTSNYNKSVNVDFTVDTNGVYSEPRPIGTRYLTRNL

Take AVB Sepharose HP resin (VHH): the yield (AAV titer in elution fraction vs. load) was determined as 45.8% in experiment [1] and 10.6% in experiment [2].

In the case of “POROS CaptureSelect AAVX Affinity resin (VHH)”, the yield (AAV titer in elution fraction vs. load) in experiment [3] was 25.6%; in experiment [4], 63.4%.
